From article PMC2527131

Target: BLyS receptors on human B cells (human (endogenous in peripheral blood B cells))

Row | nuclear localization of NF-κB p52 in human B cells after 48 h with 100 ng/ml BLyS (Western blot of nuclear extracts, three B cell preparations), fold over unstimulated B cells [fold] | Substance
1 | 2.4 | FLAG-tagged murine BLyS (from UniProt Q9WU72 127-309) (ligand)
2 | 7.1 | recombinant human FLAG-tagged BLyS (from UniProt Q9Y275 134-285) (ligand)
